According to patent US7407939B2, “Protein kinase inhibitors comprising ATP mimetics conjugated to peptides or peptidomimetics” (CureGenics Ltd., priority 2001, dated 2008):

Test system: PC-3 cells
Assay: ssDNA apoptosis ELISA (induction of apoptosis in prostate cancer cells)
Assay type: cell-based
Settings: 50 μM, optical density of treated divided by untreated cells
Experimental: Cells were assayed for Apoptosis using the ssDNA Apoptosis ELISA kit (Chemicon International Inc.). Cells were seeded in 96-well plates (5000 cells/well) and treated with different concentrations of the inhibitors. At different time point, plates were centrifuges at 200 g for 5 min, medium was removed and the cells were fixed with 80% methanol in PBS for 30 min at room temperature. Plates were dried by floating in a waterbath at 37° C. for 20 minutes. 50 μl of Formamide was added to each well and incubate at room temperature for 10 min. Plates were heated to 75° C. in a circulating waterbath for 10 min, cooled in refrigerator for 5 min, and then formamide was removed. […] Plates were monitored for colour development by ABTS using microplate reader at 405 nm.
DNA in apoptotic cells is sensitive to denaturation by formamide in contrast to necrotic cells. […] The specific denaturation was detected with monoclonal antibody to single stranded DNA. Using ssDNA Apoptosis ELISA kit (Chemicon International, Inc.) chimeric compounds were analyzed for their potential to induce apoptosis in PC-3 cells compared to TRAIL (TNF-related apoptosis-inducing ligand), a known apoptotic agent (R&D Systems, Inc.). Results are presented in values of apoptotic index which is calculated by dividing the optical density of treated and untreated cells.

B1: TRAIL: TNF-related apoptosis-inducing ligand, a known apoptotic agent (R&D Systems, Inc.) (protein, UniProt P50591 1-281, looked up)
Tumor necrosis factor ligand …: MAMMEVQGGPSLGQTCVLIVIFTVLLQSLCVAVTYVYFTNELKQMQDKYSKSGIACFLKEDDSYWDPNDEESMNSPCWQVKWQLRQLVRKMILRTSEETISTVQEKQQNISPLVRERGPQRVAAHITGTRGRSNTLSSPNSKNEKALGRKINSWESSRSGHSFLSNLHLRNGELVIHEKGFYYIYSQTYFRFQEEIKENTKNDKQMVQYIYKYTSYPDPILLMKSARNSCWSKDAEYGLYSIYQGGIFELKENDRIFVSVTNEHLIDMDHEASFFGAFLVG
- Apoptotic index (48 hours): 2.3
